Experimental findings from US20210061896A1 (SHANGHAI YILE BIOTECHNOLOGY, published 2021) are described below.

As usually defined, the Kd is the free concentration of one partner at which half of the binding sites on the other are occupied at equilibrium, for simple one-to-one binding. As usually defined, the koff is the first-order rate constant of dissociation. In general, kon refers to the rate constant with which the complex forms. Lower therefore signals slower complex formation.

Ends that are not written are not given here.

The target of assay [1] is T1, biotinylated VP peptide fragment (human, also: biotinylated (position not given here)).
T1 construct: Synthesized in vitro; 12 amino acids
T1 peptide: VMLSSQVPLEPP
Description: ELISA on biotinylated peptide. (In general: In an ELISA, binding on a coated surface is turned into a signal by an enzyme label.)

Assay [2] concerns the target T2, biotinylated LL peptide fragment (human, also: biotinylated (position not given here)).
T2 construct: Synthesized in vitro; 12 amino acids
T2 peptide: LLFLLEEYKNYL
Description: ELISA on biotinylated peptide.

Assay [3] concerns the target T3, GST-huBDNFpro E1.
T3 construct: also called GST-huBDNFpro-E1 peptide fragment; GST fusion partner and any linker between GST and the peptide not given
T3 chain: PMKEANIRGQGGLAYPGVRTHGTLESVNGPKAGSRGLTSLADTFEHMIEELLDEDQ
The experiment in a line: ELISA on GST fusion proteins (Example 7), single condition.

Assay [4] has as its target T4, GST-huBDNFpro E4.
T4 construct: also called GST-huBDNFpro-E4 peptide fragment; GST fusion partner and any linker between GST and the peptide not given
T4 chain: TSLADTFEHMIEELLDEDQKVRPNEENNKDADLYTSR
Described as above.

Assay [5] has as its target T3, GST-huBDNFpro E1. The experiment in a line: ELISA on GST fusion proteins (Example 7), single condition, concentrations not given.
The target of a further assay is T5, GST-huBDNFpro E3.
T5 construct: fusion tag; also called GST-huBDNFpro-E3 peptide fragment
The assay is described as above.

In assay [6] the target is T4, GST-huBDNFpro E4. The assay is described as above.
Another assay addresses T6, GST-GPC3.
T6 construct: fusion tag; It appears to be the negative control antigen
Described as above.

Assay [7] deals with T7, GST-huBDNFpro-E5 peptide fragment (human).
T7 construct: the text speaks of 36 amino acids; also called polypeptide E5; not shown: Glutathione S-transferase (GST) fusion partner
T7 chain: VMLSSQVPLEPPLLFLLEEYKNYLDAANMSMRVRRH
Described as above.

In assay [8] the target is T8, full length GST-huBDNFpro (human, UniProt P23560 20-129).
T8 construct: GST is placed at the N-terminus by the printed name only; not shown: Glutathione S-transferase (GST) fusion partner
T8 chain: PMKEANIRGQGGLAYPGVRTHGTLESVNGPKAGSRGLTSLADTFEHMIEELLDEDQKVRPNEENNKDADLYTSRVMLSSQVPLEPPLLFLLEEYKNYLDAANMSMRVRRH
The description is as above.

For assay [9], the target named is T9, GST-huBDNFpro-E2 peptide fragment (human, UniProt O18755 76-129 (Procyon lotor entry)).
T9 construct: also called polypeptide E2; not shown: Glutathione S-transferase (GST) fusion partner
T9 sequence: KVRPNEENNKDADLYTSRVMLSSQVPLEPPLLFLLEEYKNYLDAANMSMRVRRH
The description is as above.

Assay [10] deals with T1, biotinylated VP peptide fragment. The experiment in a line: ELISA on biotinylated synthetic peptides (Example 8), single condition, concentrations not given.
The target in assay [11] is T2, biotinylated LL peptide fragment. The assay is described as above.
The target of assay [12] is T10, biotinylated DH peptide fragment (human, also: biotinylated (position not given here)).
T10 construct: Synthesized in vitro; 12 amino acids; also called polypeptide DH
T10 peptide: DAANMSMRVRRH
The description is as above.

The target of assay [13] is T11, human proBDNF precursor protein (human, UniProt P23560 19-247).
T11 construct: also called human proBDNF precursor recombinant protein
T11 sequence (looked up): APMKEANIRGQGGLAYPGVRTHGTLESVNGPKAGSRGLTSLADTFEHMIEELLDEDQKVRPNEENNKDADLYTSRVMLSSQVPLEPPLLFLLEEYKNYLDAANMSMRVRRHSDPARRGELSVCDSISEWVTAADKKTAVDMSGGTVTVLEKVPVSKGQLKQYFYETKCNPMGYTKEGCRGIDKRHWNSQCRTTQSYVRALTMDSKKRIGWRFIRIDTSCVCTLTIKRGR
The experiment in a line: SPR, Biacore T200, capture method, antigen 0.25-8 nM. On the procedure: The affinity and kinetic parameters of the 1D3 and 2H8 monoclonal antibodies were measured by the capture method using Biacore T200 system (purchased from GE), respectively. The system was manipulated according to the instructions, human proBDNF precursor protein was used at a concentration of 0.25 nM, 0.5 nM, 1 nM, 2 nM, 4 nM, and 8 nM, respectively. The Biacore T200 evaluation software was used to evaluate the resulting action curve and calculate the affinity KD value.
In general terms: In SPR one partner is held on a chip, and binding of the other changes the refractive index at the surface.

The target in another assay is T12, BSA (UniProt P02769 25-607).
T12 construct: also called negative control protein BSA
T12 sequence (P02769 25-607 limits assumed): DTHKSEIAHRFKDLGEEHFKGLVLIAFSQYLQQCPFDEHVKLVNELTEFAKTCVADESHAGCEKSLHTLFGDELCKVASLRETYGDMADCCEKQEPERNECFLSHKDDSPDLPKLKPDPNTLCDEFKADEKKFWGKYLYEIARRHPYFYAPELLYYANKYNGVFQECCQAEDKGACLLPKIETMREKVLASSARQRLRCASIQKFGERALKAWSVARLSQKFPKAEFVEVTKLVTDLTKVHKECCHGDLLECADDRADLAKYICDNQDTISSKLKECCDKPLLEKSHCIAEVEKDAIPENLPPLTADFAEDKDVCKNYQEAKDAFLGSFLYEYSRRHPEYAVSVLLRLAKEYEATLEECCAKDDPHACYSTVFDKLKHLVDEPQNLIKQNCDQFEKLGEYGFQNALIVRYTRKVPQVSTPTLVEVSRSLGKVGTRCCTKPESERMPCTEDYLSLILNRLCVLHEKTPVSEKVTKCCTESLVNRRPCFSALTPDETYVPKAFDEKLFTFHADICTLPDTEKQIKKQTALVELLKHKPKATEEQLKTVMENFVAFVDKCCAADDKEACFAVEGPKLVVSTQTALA
The experiment in a line: single-phage ELISA. On the procedure: Ninety-six clones were randomly selected from the fourth round of screening, and single-phage ELISA (enzyme-linked immunosorbent assay) was used to analyze their binding ability to human proBDNF precursors. For this purpose, each single colony was inoculated into 300 μl of 2×YT/ampicillin medium (containing 2% glucose) in a 96-well deep-well culture plate, shaken and cultured at 37° C. and 250 rpm for 16 hours. 20 μl of the culture was inoculated into 500 μl of 2×YT/ampicillin medium (containing 0.1% glucose), and shaken and cultured at 37° C. and 250 rpm for 1.5 hours. For preparing helper phage solution, 75 μl of M13KO7 (titer: 3×10¹² pfu/ml) was taken and mixed into 15 ml of 2×YT medium, added to the culture plate at 50 μl/well, and incubate at 37° C. and 150 rpm for 30 minutes. And then, the prepared kanamycin solution was added at 50 μl/well (180 μl of 50 mg/ml kanamycin was taken and added to 15 ml 2×YT medium), and shaken and cultured at 37° C. and 250 rpm for 16 hours. […]
To perform a single phage ELISA, a 96-well MediSorp ELISA plate (purchased from Nunc) was coated with 100 ng/well antigen human proBDNF precursor and negative control protein BSA (100 μl/well) respectively, overnight at 4° C. […] The extinction value was measured at 450 nm using an enzyme-linked immunoassay device (Bio-Rad).

B1: 1D3 monoclonal antibody (antibody, human IgG4, kappa, V domains shown)
VH: QVQLVESGGGLIQPGGSMRLSCAASGFSLSGYDMHWVRQIAGKGLEWVAGLGMEGDSYYSASVKGRFTISRQDAKNSLYLEMKDLGGGDTAVYYCLRDVHGFDVWGQGTTVTVSS
VL: DVVMTQSPLSLPVTPGEPASISCRSSQSLLYSNGYTYLDWYLQRPGQSPQLLIYMGSNRASGVPDRFSGSGSGTDFTLKISRVEAEDVGVYYCMQALQTPLTFGGGTKLEIKR
notes: also called recombinant monoclonal antibody 1D3 (human IgG1 type); Ab-proBDNF (1D3)
On to B1, for which the binding result (in assay [1]; in [2]; with GST-huBDNFpro E1 [3]; with GST-huBDNFpro E4 [4]) was “no binding” in each case. The OD450nM with GST-huBDNFpro E1 [5] came to 0.0114; in the assay with GST-huBDNFpro E3, 0.0245; with GST-huBDNFpro E4 [6] it was 0.0081; in the assay with GST-GPC3 it was 0.0577; in [7], 0.979; in assay [8] it was 0.625. Further, the OD450nM in [9] worked out at 0.914; in [10], 0.0122; in assay [11] it was 0.0167; in assay [12] it was 1.7.

B2: 2H8 monoclonal antibody (antibody, human IgG4, kappa, V domains shown)
VH: EVQLVETGGGLVQPGGSLRLSCAASGFTFSSYGMHWVRQAPGKGLEWVSVISGSGDSTYYAESVKGRFTISRDNARNTVYLQMNSLRAEDTAVYYCASGILTGYVFDYWGKGTMVTVSS
VL: DVVMTQSPLSLPVTLGQPASISCRSSQSLVSNDGNTYLNWFQQRPGQPPRRLIYMVSKWDSGVPDRFSGSGSGTDFTLRISRVEAEDVGVYYCMQSTHWPPTFGGGTKLEIKR
notes: also called recombinant monoclonal antibody 2H8 (human IgG1 type)
As to B2, the binding result (in assay [1]; in [2]; with GST-huBDNFpro E1 [3]; with GST-huBDNFpro E4 [4]) was “no binding” each time. In assay [13], this molecule came in with a Kd of 1.91 nM. For the same molecule, in [13], the koff was determined as 0.00594 s⁻¹. The molecule further returned a kon in assay [13] of 3.1e+06 M⁻¹ s⁻¹. The OD450nM with GST-huBDNFpro E1 [5] stood at 0.015; with GST-huBDNFpro E3 it was 0.0144; with GST-huBDNFpro E4 [6] it was 0.0089; with GST-GPC3, 0.05; in assay [7] it was 1.06; in assay [8] it was 0.758. The OD450nM was found to be 0.962 in [9], 0.0104 in assay [10], 0.0115 in [11] and 0.831 in [12].

B3: single-chain antibody 1D3 (scFv)
scFv: QVQLVESGGGLIQPGGSMRLSCAASGFSLSGYDMHWVRQIAGKGLEWVAGLGMEGDSYYSASVKGRFTISRQDAKNSLYLEMKDLGGGDTAVYYCLRDVHGFDVWGQGTTVTVSSGGGGSGGGGSGGGGSDVVMTQSPLSLPVTPGEPASISCRSSQSLLYSNGYTYLDWYLQRPGQSPQLLIYMGSNRASGVPDRFSGSGSGTDFTLKISRVEAEDVGVYYCMQALQTPLTFGGGTKLEIKR
notes: also called 1D3, scFv; pCantab-1D3
In the case of B3, in the assay with BSA, the binding result is given as “no binding (tested: 100 ng/well coated)”.

B4: single-chain antibody 2H8 (scFv)
scFv: EVQLVETGGGLVQPGGSLRLSCAASGFTFSSYGMHWVRQAPGKGLEWVSVISGSGDSTYYAESVKGRFTISRDNARNTVYLQMNSLRAEDTAVYYCASGILTGYVFDYWGKGTMVTVSSGGGGSGGGGSGGGGSDVVMTQSPLSLPVTLGQPASISCRSSQSLVSNDGNTYLNWFQQRPGQPPRRLIYMVSKWDSGVPDRFSGSGSGTDFTLRISRVEAEDVGVYYCMQSTHWPPTFGGGTKLEIKR
notes: probably a print error; also called 2H8, scFv; pCantab-2H8
Consider B4, for which the binding result with BSA is “no binding (tested: 100 ng/well coated)”.
